The values below come from the supplement of paper PMC5998384.

Data set [1] has as its system HeLa Kyoto. The data set can be described thus: solubility change mitosis vs G1/S (difference of NP-40 vs SDS log2 ratios) (log2 ratio difference); higher = more soluble in mitosis.
Data set [2] concerns HeLa Kyoto. The data set can be described thus: thermal stability score vs G1/S (z-score of summed log2 fold changes over temperatures); higher = more thermally stable than in G1/S.
Data set [3] has as its system HeLa Kyoto. The data set can be described thus: melting temperature (median over replicates), in situ; higher = more thermally stable.
For data set [4], the system named is HeLa Kyoto. Put plainly: solubility in G1/S (NP-40 vs SDS abundance) (log2 ratio); higher = more soluble. The conditions noted are these: cell cycle stage: G1/S.
Setting [5] is: cell cycle stage: early G1 (4.5 h after nocodazole release).
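Throughout, for melting temperature (median over replicates), in situ: HeLa Kyoto cells synchronized by double thymidine or nocodazole block, proteins quantified by TMT10plex mass spectrometry, three independent biological replicates.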
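Throughout, for solubility change mitosis vs G1/S (difference of NP-40 vs SDS log2 ratios): synchronized HeLa Kyoto cells (double thymidine block for G1/S, nocodazole release for mitosis), protein amounts in NP-40 versus SDS lysates quantified by mass spectrometry, three biological replicates.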
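Throughout, for solubility in G1/S (NP-40 vs SDS abundance): HeLa Kyoto cells arrested at G1/S by double thymidine block, proteins quantified by TMT10plex mass spectrometry in mild NP-40 versus SDS extracts, three biological replicates.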
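Throughout, for thermal stability score vs G1/S (z-score of summed log2 fold changes over temperatures): synchronized HeLa Kyoto cells, proteins quantified by TMT10plex mass spectrometry, three biological replicates, mitosis taken 0.5 h after nocodazole release, G1/S directly after double thymidine block.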

Regarding “MVRPVRHKKPVNYSQFDHSDSDDDFVSATVPLNKKSRTAPKELKQDKPKPNLNNLRKEEIPVQEKTPKKRLPEGTFSIPASAVPCTKMALDDKLYQRDLEVALALSVKELPTVTTNVQNSQDKSIEKHGSSKIETMNKSPHISNCSVASDYLDLDKITVEDDVGGVQGKRKAASKAAAQQRKILLEGSDGDSANDTEPDFAPGEDSEDDSDFCESEDNDEDFSMRKSKVKEIKKKEVKVKSPVEKKEKKSKSKCNALVTSVDSAPAAVKSESQSLPKKVSLSSDTTRKPLEIRSPSAESKKPKWVPPAASGGSRSSSSPLVVVSVKSPNQSLRLGLSRLARVKPLHPNATST [RAD51AP1]”, the “solubility change mitosis (log2)” value in the data set on HeLa Kyoto [1] was determined as 0.203. Besides, the figures for the thermal stability score with HeLa Kyoto [2] (setting [5]) and in the data set on HeLa Kyoto [2] (cell cycle stage: mitosis) were 1.26 and 7.25, respectively. Besides, the melting temperature with HeLa Kyoto [3] (cell cycle stage: G1/S) amounted to 53.8 °C; in the data set with HeLa Kyoto [3] (cell cycle stage: mitosis), 58 °C. For the same sequence, in the data set with HeLa Kyoto [4], the “solubility in G1/S (log2)” value is 0.0638.

Consider “MVSHSELRKLFYSADAVCFDVDSTVIREEGIDELAKICGVEDAVSEMTRRAMGGAVPFKAALTERLALIQPSREQVQRLIAEQPPHLTPGIRELVSRLQERNVQVFLISGGFRSIVEHVASKLNIPATNVFANRLKFYFNGEYAGFDETQPTAESGGKGKVIKLLKEKFHFKKIIMIGDGATDMEACPPADAFIGFGGNVIRQQVKDNAKWYITDFVELLGELEE [PSPH]”, for which, in the data set with HeLa Kyoto [1], the “solubility change mitosis (log2)” value is -0.049. For the same sequence, the thermal stability score is -0.555 with HeLa Kyoto [2] (setting [5]) and -0.969 in the data set with HeLa Kyoto [2] (cell cycle stage: mitosis). The melting temperature was 56.6 °C with HeLa Kyoto [3] (cell cycle stage: G1/S) and 58.2 °C in the data set with HeLa Kyoto [3] (cell cycle stage: mitosis). The “solubility in G1/S (log2)” value in the data set on HeLa Kyoto [4] is 0.258.

With “MVSIPEYYEGKNVLLTGATGFLGKVLLEKLLRSCPKVNSVYVLVRQKAGQTPQERVEEVLSGKLFDRLRDENPDFREKIIAINSELTQPKLALSEEDKEVIIDSTNIIFHCAATVRFNENLRDAVQLNVIATRQLILLAQQMKNLEVFMHVSTAYAYCNRKHIDEVVYPPPVDPKKLIDSLEWMDDGLVNDITPKLIGDRPNTYIYTKALAEYVVQQEGAKLNVAIVRPSIVGASWKEPFPGWIDNFNGPSGLFIAAGKGILRTIRASNNALADLVPVDVVVNMSLAAAWYSGVNRPRNIMVYNCTTGSTNPFHWGEVEYHVISTFKRNPLEQAFRRPNVNLTSNHLLYHYWIAVSHKAPAFLYDIYLRMTGRSPRMMKTITRLHKAMVFLEYFTSNSWVWNTENVNMLMNQLNPEDKKTFNIDVRQLHWAEYIENYCLGTKKYVLNEEMSGLPAARKHLNKLRNIRYGFNTILVILIWRIFIARSQMARNIWYFVVSLCYKFLSYFRASSTMRY [FAR1]”, the “solubility change mitosis (log2)” value with HeLa Kyoto [1] is -0.0436. Moreover, the thermal stability score in the data set with HeLa Kyoto [2] (setting [5]) worked out at 0.0485; in the data set on HeLa Kyoto [2] (cell cycle stage: mitosis), 0.111. Further, the melting temperature was determined as 51.7 °C with HeLa Kyoto [3] (cell cycle stage: G1/S) and 51.2 °C in the data set on HeLa Kyoto [3] (cell cycle stage: mitosis). For the same sequence, the “solubility in G1/S (log2)” value in the data set with HeLa Kyoto [4] was -0.254.

Regarding “MVSKALLRLVSAVNRRRMKLLLGIALLAYVASVWGNFVNMRSIQENGELKIESKIEEMVEPLREKIRDLEKSFTQKYPPVKFLSEKDRKRILITGGAGFVGSHLTDKLMMDGHEVTVVDNFFTGRKRNVEHWIGHENFELINHDVVEPLYIEVDQIYHLASPASPPNYMYNPIKTLKTNTIGTLNMLGLAKRVGARLLLASTSEVYGDPEVHPQSEDYWGHVNPIGPRACYDEGKRVAETMCYAYMKQEGVEVRVARIFNTFGPRMHMNDGRVVSNFILQALQGEPLTVYGSGSQTRAFQYVSDLVNGLVALMNSNVSSPVNLGNPEEHTILEFAQLIKNLVGSGSEIQFLSEAQDDPQKRKPDIKKAKLMLGWEPVVPLEEGLNKAIHYFRKELEYQANNQYIPKPKPARIKKGRTRHS [UXS1]”, in the data set with HeLa Kyoto [1], the “solubility change mitosis (log2)” value was -0.193. Further, the figures for the thermal stability score in the data set on HeLa Kyoto [2] (setting [5]) and with HeLa Kyoto [2] (cell cycle stage: mitosis) were 0.535 and -0.237, respectively. The melting temperature in the data set with HeLa Kyoto [3] (cell cycle stage: G1/S) turned out to be 54.6 °C; in the data set on HeLa Kyoto [3] (cell cycle stage: mitosis) it was 54.7 °C. In the data set on HeLa Kyoto [4], the “solubility in G1/S (log2)” value is 0.264.

In the case of “MVSRPEPEGEAMDAELAVAPPGCSHLGSFKVDNWKQNLRAIYQCFVWSGTAEARKRKAKSCICHVCGVHLNRLHSCLYCVFFGCFTKKHIHEHAKAKRHNLAIDLMYGGIYCFLCQDYIYDKDMEIIAKEEQRKAWKMQGVGEKFSTWEPTKRELELLKHNPKRRKITSNCTIGLRGLINLGNTCFMNCIVQALTHTPLLRDFFLSDRHRCEMQSPSSCLVCEMSSLFQEFYSGHRSPHIPYKLLHLVWTHARHLAGYEQQDAHEFLIAALDVLHRHCKGDDNGKKANNPNHCNCIIDQIFTGGLQSDVTCQVCHGVSTTIDPFWDISLDLPGSSTPFWPLSPGSEGNVVNGESHVSGTTTLTDCLRRFTRPEHLGSSAKIKCSGCHSYQESTKQLTMKKLPIVACFHLKRFEHSAKLRRKITTYVSFPLELDMTPFMASSKESRMNGQYQQPTDSLNNDNKYSLFAVVNHQGTLESGHYTSFIRQHKDQWFKCDDAIITKASIKDVLDSEGYLLFYHKQFLEYE [USP22]”, the “solubility change mitosis (log2)” value with HeLa Kyoto [1] was -0.0588. For the same sequence, the thermal stability score stood at 0.773 in the data set on HeLa Kyoto [2] (setting [5]) and 1.56 in the data set with HeLa Kyoto [2] (cell cycle stage: mitosis). The values for the melting temperature in the data set on HeLa Kyoto [3] (cell cycle stage: G1/S) and in the data set with HeLa Kyoto [3] (cell cycle stage: mitosis) were 48.1 °C and 49.6 °C, respectively. Further, in the data set with HeLa Kyoto [4], the “solubility in G1/S (log2)” value is -0.542.

Turning to “MVTVGNYCEAEGPVGPAWMQDGLSPCFFFTLVPSTRMALGTLALVLALPCRRRERPAGADSLSWGAGPRISPYVLQLLLATLQAALPLAGLAGRVGTARGAPLPSYLLLASVLESLAGACGLWLLVVERSQARQRLAMGIWIKFRHSPGLLLLWTVAFAAENLALVSWNSPQWWWARADLGQQVQFSLWVLRYVVSGGLFVLGLWAPGLRPQSYTLQVHEEDQDVERSQVRSAAQQSTWRDFGRKLRLLSGYLWPRGSPALQLVVLICLGLMGLERALNVLVPIFYRNIVNLLTEKAPWNSLAWTVTSYVFLKFLQGGGTGSTGFVSNLRTFLWIRVQQFTSRRVELLIFSHLHELSLRWHLGRRTGEVLRIADRGTSSVTGLLSYLVFNVIPTLADIIIGIIYFSMFFNAWFGLIVFLCMSLYLTLTIVVTEWRTKFRRAMNTQENATRARAVDSLLNFETVKYYNAESYEVERYREAIIKYQGLEWKSSASLVLLNQTQNLVIGLGLLAGSLLCAYFVTEQKLQVGDYVLFGTYIIQLYMPLNWFGTYYRMIQTNFIDMENMFDLLKEETEVKDLPGAGPLRFQKGRIEFENVHFSYADGRETLQDVSFTVMPGQTLALVGPSGAGKSTILRLLFRFYDISSGCIRIDGQDISQVTQASLRSHIGVVPQDTVLFNDTIADNIRYGRVTAGNDEVEAAAQAAGIHDAIMAFPEGYRTQVGERGLKLSGGEKQRVAIARTILKAPGIILLDEATSALDTSNERAIQASLAKVCANRTTIVVAHRLSTVVNADQILVIKDGCIVERGRHEALLSRGGVYADMWQLQQGQEETSEDTKPQTMER [ABCB6]”, in the data set on HeLa Kyoto [1], the “solubility change mitosis (log2)” value is -0.128. For the same sequence, the thermal stability score was -1.04 with HeLa Kyoto [2] (setting [5]) and -3.83 in the data set on HeLa Kyoto [2] (cell cycle stage: mitosis). Further, the melting temperature in the data set on HeLa Kyoto [3] (cell cycle stage: G1/S) was 54 °C; with HeLa Kyoto [3] (cell cycle stage: mitosis), 53.4 °C. In the data set on HeLa Kyoto [4], the “solubility in G1/S (log2)” value was -0.0102.

As to “MVVMARLSRPERPDLVFEEEDLPYEEEIMRNQFSVKCWLRYIEFKQGAPKPRLNQLYERALKLLPCSYKLWYRYLKARRAQVKHRCVTDPAYEDVNNCHERAFVFMHKMPRLWLDYCQFLMDQGRVTHTRRTFDRALRALPITQHSRIWPLYLRFLRSHPLPETAVRGYRRFLKLSPESAEEYIEYLKSSDRLDEAAQRLATVVNDERFVSKAGKSNYQLWHELCDLISQNPDKVQSLNVDAIIRGGLTRFTDQLGKLWCSLADYYIRSGHFEKARDVYEEAIRTVMTVRDFTQVFDSYAQFEESMIAAKMETASELGREEEDDVDLELRLARFEQLISRRPLLLNSVLLRQNPHHVHEWHKRVALHQGRPREIINTYTEAVQTVDPFKATGKPHTLWVAFAKFYEDNGQLDDARVILEKATKVNFKQVDDLASVWCQCGELELRHENYDEALRLLRKATALPARRAEYFDGSEPVQNRVYKSLKVWSMLADLEESLGTFQSTKAVYDRILDLRIATPQIVINYAMFLEEHKYFEESFKAYERGISLFKWPNVSDIWSTYLTKFIARYGGRKLERARDLFEQALDGCPPKYAKTLYLLYAQLEEEWGLARHAMAVYERATRAVEPAQQYDMFNIYIKRAAEIYGVTHTRGIYQKAIEVLSDEHAREMCLRFADMECKLGEIDRARAIYSFCSQICDPRTTGAFWQTWKDFEVRHGNEDTIKEMLRIRRSVQATYNTQVNFMASQMLKVSGSATGTVSDLAPGQSGMDDMKLLEQRAEQLAAEAERDQPLRAQSKILFVRSDASREELAELAQQVNPEEIQLGEDEDEDEMDLEPNEVRLEQQSVPAAVFGSLKED [XAB2]”, in the data set with HeLa Kyoto [1], the “solubility change mitosis (log2)” value was 0.0385. In addition, the values for the thermal stability score in the data set on HeLa Kyoto [2] (setting [5]) and in the data set on HeLa Kyoto [2] (cell cycle stage: mitosis) were 2.02 and 4.49, respectively. The melting temperature in the data set on HeLa Kyoto [3] (cell cycle stage: G1/S) amounted to 47.4 °C; in the data set with HeLa Kyoto [3] (cell cycle stage: mitosis), 48.4 °C. Further, the “solubility in G1/S (log2)” value in the data set with HeLa Kyoto [4] is -0.31.

Take “MWALRAAVRPGLRLSRVGRGRSAPRAAAPSCPARALAAVGRRSPGNLEGPWGGGRGLRADGGRSRTGDDEEEPEDADENAEEELLRGEPLLPAGTQRVCLVHPDVKWGPGKSQMTRAEWQVAEATALVHTLDGWSVVQTMVVSTKTPDRKLIFGKGNFEHLTEKIRGSPDITCVFLNVERMAAPTKKELEAAWGVEVFDRFTVVLHIFRCNARTKEARLQVALAEMPLHRSNLKRDVAHLYRGVGSRYIMGSGESFMQLQQRLLREKEAKIRKALDRLRKKRHLLRRQRTRREFPVISVVGYTNCGKTTLIKALTGDAAIQPRDQLFATLDVTAHAGTLPSRMTVLYVDTIGFLSQLPHGLIESFSATLEDVAHSDLILHVRDVSHPEAELQKCSVLSTLRGLQLPAPLLDSMVEVHNKVDLVPGYSPTEPNVVPVSALRGHGLQELKAELDAAVLKATGRQILTLRVRLAGAQLSWLYKEATVQEVDVIPEDGAADVRVIISNSAYGKFRKLFPG [GTPBP6]”: the “solubility change mitosis (log2)” value in the data set with HeLa Kyoto [1] came to 0.00881. Moreover, the thermal stability score with HeLa Kyoto [2] (setting [5]) is -0.762; in the data set on HeLa Kyoto [2] (cell cycle stage: mitosis), -0.462. Further, the results for the melting temperature in the data set on HeLa Kyoto [3] (cell cycle stage: G1/S) and with HeLa Kyoto [3] (cell cycle stage: mitosis) were 51.8 °C and 51.4 °C, respectively. The “solubility in G1/S (log2)” value with HeLa Kyoto [4] was -0.232.
